In PMC4162156 one finds percentage occupancy of sample (oligomer) and stoichiometry N (monomer subunits) data, which are given here for 1 substance.

For this assay, the target named is β-PrP^23–231 (full-length recombinant mouse PrP residues 23–231 refolded to the β-sheet conformation) (mouse) (UniProt P04925). The assay can be described thus: AUC.

For the substance “β-PrP^23–231 (full-length recombinant mouse PrP residues 23–231 refolded to the β-sheet conformation) (from UniProt P04925 23-231) (natural protein)”, the percentage occupancy of sample (oligomer) worked out at 61% and the stoichiometry N (monomer subunits) was determined as 12.
